Measurements from the RNAGym collection of RNA variant scans (doi:10.1073/pnas.2313332121).

B1: TPR t1 (parent)
chain: GACCAAUCUGCCCUCAGAGCUCGAGAACAUCUUCGGAUGCAGAGGAGGCAGGCUUCGGUGGCGCGAUAGCGCCAACGUCCUCAACCUCCAAUGCAUCCCACCACAUGAUGAUGCCUGAAGAGCCUUGGUUUUUUG

Variants of: B1
Experiment: polymerase ribozyme fitness, log enrichment relative to wild type (log ratio); higher = more active; in vitro selection for triplet polymerase activity
Outline: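 Fitness measures genotype enrichment against wild-type enrichment on a logarithmic scale, with inverse-variance-weighted averaging of replicates. The logarithm is base 2, and genotypes were kept only with ≥10 input reads and ≥1 read per output in Illumina sequencing. The sequenced libraries came from one triplicate in vitro selection round, including frozen incubation at −7 °C, of PCR-built, transcribed mutant libraries of each subunit of a heterodimeric triplet polymerase ribozyme.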

In order of falling “polymerase ribozyme fitness (log ratio)” value:
1. GACCAAUCUGCCCUCAGAGCUCGAGAACAUCUUCGGAUGCCGAGGAGGCAGGCUUCGAUGGCGCGAUAGCGUCAACGUCCUCAACCUCCAAUGCAUCCCACCACAUGAUGAUGCCUGAAGAGCCUUGGUUUUUUG [A41C G58A C72U]  -0.757
2. GACCAAUCUGCCCUCAGAGCUCGAGAACAUCUUCGGAUGUAGAGGAGGCAGGCUUCGGUGGCGCGAUAACGUCAACGUCCUCAACCUCCAAUGCAUCCCACCACAUGAUGAUGCCUGAAGAGCAUUGGUUUUUUG [C40U G69A C72U C124A]  -1.11
3. GACCAAUCUGCCCUCAGAGCUCGAGAACAUCUUCGGAUGUAGAGGAGGCAGGCUUCGGUGGCGCGAUAGCGCCAACGCCCUCAACCUCCAAUGCAUCCCACCACAUGAUGAUGCCUGAAGAGCCUUGGUUUAUUG [C40U U78C U132A]  -1.65
4. GACCAAUCUGCCCUCAGAGCUCGAGAACAUCUUCGGAUGCCGAGGAGGCAGGCUUCGGUGGCGCGAUAGCGCCGACGUCCUCAACCUCCAAUGCAUCUCACCACAUGAUGAUGCCUGAAGAGCCUUGGUUUUUUG [A41C A74G C98U]  -1.89
5. GACCAAUCUGCCCUCAGAGCUCGAGAACAUCUUCGGAUGUAGAGGAGGCAGGCUUCGGUGGCGCGAUAGCGCCAACGUCCUCAACCUCCAAUGCAUCCCACCACAUGAUGAUGCCUGAAGAACCUUGGUAUUUUG [C40U G122A U130A]  -1.96
6. GACCAAUCUGCCCUCAGAGCUCGAGAACAUCUUCGGAUGCCGAGGAGGCAGGCUUCGGUGGCGCGAUAGUGCCAACGUCCUCAACCUCCAAUGCAUCCCACCACAUGAUGAUGCCUGAAGAGCCUUGGUUUUUUG [A41C C70U]  -2.04
7. GACCAAUCUGCCCUCAGAGCUCGAGAACAUCUUCGGAUGCCGAGGAGGCAGGCUUCGGUGGAGCGAUAGCGCCAACGUCCUUAACCUCCAAUGCAUCCCACCACAUGAUGAUGCCUGAAGAGCCUUGGUUUUUUG [A41C C62A C82U]  -2.04
8. GACCAAUCUGCCCUCAGAGCUCGAGAACAUCUUCGGAUGCCGAGGAGGCAGGUUUCGGUGGCGCGAUAGCGCCAACGUCCUCAACCUCCAAUGCAUCCCACCACAUGAUGAUGCCUGAAGAACCUUGGUUUUUUG [A41C C53U G122A]  -2.04
9. GACCAAUCUGCCCUCAGAGCUCGAGAACAUCUUCGGAUGCCGAGGAGGCAGGCUUCGGUGGCGCGAUAGCGCCAACGUCCUCAACCUCCAAUGCAUCCCACCACAUGAUGAUGUCUGAAGAGCCUUGGUUUUUUG [A41C C114U]  -2.16
10. GACCAAUCUGCCCUCAGAGCUCGAGAACAUCUUCGGAUGCCUAGGAGGCAGGCUUCGGUGGCGCGAUAGCGCCAACGUCCUCAACCUCCAAUGCAUCCCACCAUAUGAUGAUGACUGAAGAGCCUUGGUUUUUUG [A41C G42U C104U C114A]  -3.04
11. GACCAAUCUGCCCUCAGAGCUCGAGAACAUCUUCGGAUGCCGAGGAGUCAGGCUUCGGUGGCGCGAUAGCGCCAACGUCCUCAACCUCCAAUGCAUCCCACCACAUGAUGCUGCCUGAAGAGCCUUGGUUUUUUG [A41C G48U A111C]  -3.12
12. GACCAAUCUGCCCUCAGAGCUCGAGAACAUCUUCGGAUGCCGAGGAGGCAGGCUUCGGUGGCGCGAUAGCGCGAACGUCCUCAAACUCCAAUGCAUCCCACCACAUGAUGAUGCCUGUAGAGCCUUGGUUUUUUG [A41C C73G C85A A118U]  -3.17
13. GACCAAUCUGCCCUCAGAGCUCGAGAACAUCUUCGGAUGUAGAGGAGGCAGGCUUCGGUGGCGCGAUAGCGCCAACGUCCUCAACCUCCAAUGCAGCCCACCACAUGAUGAUGCGUGUAGAUCCUUGGUUUUUUG [C40U U96G C115G A118U G122U]  -3.71
14. GACCAAUCUGCCCUCAGAGCUCGAGAACAUCUUCGGAUGCCGAGGAGGCAGGCUUCGGUGGCGCGAUAGGGCCAACGUCCUCAACCUCCAAUGCAUCCCACCACAUGAUGAUGCCUGAAGAGCCUUGGUUUUUUG [A41C C70G]  -3.91
15. GACCAAUCUGCCCUCAGAGCUCGAGAACAUCUUCGGAUGUAGAGGAGGCAGGCUUCGGUGGCGCGAUAGCGCCAACGUCCUCAACCUCCAAUGCAUCCCACCACAUGACGAUGCCUGAAGAGCCUUGGUUUUUUG [C40U U109C]  -4.01
16. GACCAAUCUGCCCUCAGAGCUCGAGAACAUCUUCGGAUGCCGAUGAGGCAGGCUUCGGUGGCGCGAUAGCGCCAACGUCCUCAACCUCCAAUGCAUCCCACCACAUGAUGAUGCAUGAAGAUCCUUGGUGUUUUG [A41C G44U C115A G122U U130G]  -4.66
17. GACCAAUCUGCCCUCAGAGCUCGAGAACAUCUUCGGAUGCCGAGGAGGCAGUCUUCGGUGGCGCGAUAGCGGCAACGUCCUCAACCUCCAAUGCAACCCACCACAUGAUGAUGCCUGAAGAGCCUUGGUUUUUUG [A41C G52U C72G U96A]  -4.71
18. GACCAAUCUGCCCUCAGAGCUCGAGAACAUCUUCGGAUGCCGAGGAGGCAGGCUUGGGUGGCGCGAUAGCGCCCACGUCCUCAACCUCCAAUGCAUCCCACCACAUGAUGAUGCCUGAAGAGCCUUGGUUUUUUG [A41C C56G A74C]  -5.29
19. GACCAAUCUGCCCUCAGAGCUCGAGAACAUCUUCGGAUGCCGAGGAGGCAGGCUUGGGUGGCGCGAUAGCGCCAACGUCCUCAAUCUCCAAUGCAUCCCACUACAUGAUGAUGCCUGAAGAGCCUUGGUUUUUUG [A41C C56G C85U C102U]  -5.51
20. GACCAAUCUGCCCUCAGAGCUCGAGAACAUCUUCGGAUGUAGAGGAGGCAGGCUUCGGUGUCGCGAUAGCGCCAACGUCCUCAACCUCCAAUGCAUACCACCACAUGAUGAUGCCUGAAGAGCCUUGGUUUUUUG [C40U G61U C97A]  -5.61
21. GACCAAUCUGCCCUCAGAGCUCGAGAACAUCUUCGGAUGUAGAGGAGGCAGGCUUCGGUGGCGCGAUAGCGCCAACGUCCUCAACCUCCAACGCAUCCCACCACAUGAUAAUGCCUCAAGAGCCUUGGUUUUUUG [C40U U92C G110A G117C]  -6.39
